Results on one substance are retold here after article PMC2248732.

In one data set the target is Hfq65 (Escherichia coli) (UniProt P0A6X3). Put plainly: EMSA. In general terms: Mobility shift assays separate free from complexed probe on a gel.
A further data set has as its target Hfqwt (Escherichia coli) (UniProt P0A6X3). Put plainly: EMSA.

The Kd is a measure of binding affinity in units of concentration. Low values mean higher affinity, high ones lower affinity.

Chain of Hfqwt (Escherichia coli) (P0A6X3 whole entry): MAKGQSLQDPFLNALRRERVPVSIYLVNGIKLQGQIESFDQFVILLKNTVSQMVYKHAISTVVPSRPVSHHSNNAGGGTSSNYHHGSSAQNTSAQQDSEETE
Chain of Hfq65 (Escherichia coli) (P0A6X3 1-65): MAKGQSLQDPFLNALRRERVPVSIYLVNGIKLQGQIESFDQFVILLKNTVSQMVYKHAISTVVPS

Take RyhB: the Kd with Hfq65 (Escherichia coli) was found to be 35 nM; with Hfqwt (Escherichia coli), 16 nM.
